Results from patent US20220298230A1 (ROCKEFELLER UNIVERSITY, published 2022).

B1: 3C05_ALIE (antibody)
heavy: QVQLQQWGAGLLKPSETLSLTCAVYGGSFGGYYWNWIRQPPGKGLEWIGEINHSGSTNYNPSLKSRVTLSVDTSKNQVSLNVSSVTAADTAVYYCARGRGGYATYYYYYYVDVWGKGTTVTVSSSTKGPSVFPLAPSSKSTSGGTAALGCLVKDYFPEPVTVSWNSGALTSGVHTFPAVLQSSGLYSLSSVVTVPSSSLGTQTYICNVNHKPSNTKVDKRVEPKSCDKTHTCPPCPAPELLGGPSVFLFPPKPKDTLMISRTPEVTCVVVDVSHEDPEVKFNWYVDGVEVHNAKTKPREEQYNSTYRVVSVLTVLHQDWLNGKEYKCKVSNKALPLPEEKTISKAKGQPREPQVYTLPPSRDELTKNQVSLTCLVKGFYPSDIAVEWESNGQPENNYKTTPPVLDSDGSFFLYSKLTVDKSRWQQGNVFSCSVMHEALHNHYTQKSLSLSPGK
light: EIVLTQSPATLSLSPGERATLSCRASQSVSSYLAWYQQKPGQAPRLLIYDASKRATGIPARFSGSGSGTDFTLTISSLEPEDFAVYYCQQRSNWLTFGGGTKVELERTVAAPSVFIFPPSDEQLKSGTASVVCLLNNFYPREAKVQWKVDNALQSGNSQESVTEQDSKDSTYSLSSTLTLSKADYEKHKVYACEVTHQGLSSPVTKSFNRGEC
B2: 1A01_ALIE (antibody)
heavy: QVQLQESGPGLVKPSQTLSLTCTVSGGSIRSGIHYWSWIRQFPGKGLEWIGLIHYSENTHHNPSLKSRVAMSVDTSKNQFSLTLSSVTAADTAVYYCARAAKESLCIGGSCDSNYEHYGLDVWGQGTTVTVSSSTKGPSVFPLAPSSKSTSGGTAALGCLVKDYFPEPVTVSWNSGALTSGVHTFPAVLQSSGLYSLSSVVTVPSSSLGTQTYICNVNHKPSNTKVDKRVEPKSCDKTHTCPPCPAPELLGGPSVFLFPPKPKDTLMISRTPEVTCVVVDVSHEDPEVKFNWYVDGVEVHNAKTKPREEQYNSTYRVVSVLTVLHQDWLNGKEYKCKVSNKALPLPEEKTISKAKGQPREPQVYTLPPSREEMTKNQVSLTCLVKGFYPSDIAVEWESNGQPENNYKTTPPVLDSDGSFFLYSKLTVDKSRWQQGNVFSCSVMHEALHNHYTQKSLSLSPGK
light: DIQMTQSPSSLSASIGDRVTITCRASQSIRNYLNWYQQKPGKAPKLVIYAVSNLQSGVPSRFSGSGSGTDFTLTISSLQPEDLATYYCQQSYSTLPYTFGQGTKVEIKLERADAAPTVSIFPPSSEQLTSGGASVVCFLNNFYPKDINVKWKIDGSERQNGVLNSWTDQDSKDSTYSMSSTLTLTKDEYERHNSYTCEATHKTSTSPIVKSFNRNEC
B3: Flu1_ALIE (antibody)
heavy: not shown
light: DIQMTQSPSSLSASVGDRVTITCRTSQSLSSYLHWYQQKPGKAPKLLIYAASSLQSGVPSRFSGSGSGTDFTLTISSLQPEDFATYYCQQSRTFGQGTKVEIKRTVAAPSVFIFPPSDEQLKSGTASVVCLLNNFYPREAKVQWKVDNALQSGNSQESVTEQDSKDSTYSLSSTLTLSKADYEKHKVYACEVTHQGLSSPVTKSFNRGEC
B4: Flu1_afucosylated (antibody)
heavy: not shown
light: B3 light
notes: also called the afucosylated antibody

Tests used:
[1] = target: T1, FcγRIIIa (human, UniProt P08637 17-208); assay: stated in the variant's description; FcγR binding profile in FIG. 22A
T1 construct: also called FcγRIIIa/b (first member)
T1 sequence (P08637 17-208 limits assumed): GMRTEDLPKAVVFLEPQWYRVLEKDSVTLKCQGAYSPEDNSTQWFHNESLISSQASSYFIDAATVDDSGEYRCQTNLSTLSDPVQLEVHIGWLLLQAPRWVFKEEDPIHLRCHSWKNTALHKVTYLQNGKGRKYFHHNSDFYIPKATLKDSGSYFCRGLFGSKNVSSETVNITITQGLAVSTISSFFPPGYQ

[2] = target: T2, FcγRIIIb (human, UniProt O75015 17-200); assay: as above
T2 construct: also called FcγRIIIa/b (second member)
T2 sequence (O75015 17-200 limits assumed): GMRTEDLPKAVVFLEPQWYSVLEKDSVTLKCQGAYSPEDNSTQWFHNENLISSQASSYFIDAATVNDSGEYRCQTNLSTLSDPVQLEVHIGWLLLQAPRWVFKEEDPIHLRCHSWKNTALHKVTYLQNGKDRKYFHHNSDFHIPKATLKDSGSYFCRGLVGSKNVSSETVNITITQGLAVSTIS

[3] = target: T1, FcγRIIIa; assay: stated in the variant's description; method not given
[4] = target: T2, FcγRIIIb; assay: as above

Binder | binding result [1] | binding result [2] | binding result [3] | binding result [4]
B1 | binds | binds | – | –
B2 | – | – | binds | binds
B3 | – | – | binds | binds
B4 | – | – | binds | binds
